Results taken from the supplement of paper PMC10065799, “High-throughput profiling of sequence recognition by tyrosine kinases and SH2 domains using bacterial peptide display” (eLife, 2023).

The sequences below were run against SHP2-C SH2 (assay: SH2 binding enrichment of the phosphorylated peptide, bacterial display (enrichment ratio); higher = better substrate or ligand; peptides without Tyr show the background).
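Also: peptide library displayed on the E. coli surface as eCPX fusions, selected cells deep-sequenced, score is each peptide's frequency after selection divided by its frequency in the input.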

Question: For YTTIHYNYMCN [TP53_Y234_C229Y], which SH2 binding enrichment is on record?
Answer: 2.47

Question: Which SH2 binding enrichment does the source give for YTDPYYDYEIE [ZC3H18_Y372_A368T] here?
Answer: 0.494

Question: How did the SH2 binding enrichment turn out when HAKKNYGNSSV [HDX_Y197] was run?
Answer: 0.69

Question: KTTILHKLKLG [ARF1_Y35_Y35H] was tested. Which SH2 binding enrichment did it give?
Answer: 1.24

Question: For KFVVVYFRETD [IL17RB_Y447_I451T_YF], which SH2 binding enrichment is on record?
Answer: 1.55

Question: Which SH2 binding enrichment does the source give for VHYLVYHHHHH [CACNA1H_Y519_H516Y] here?
Answer: 1.45

Question: RSSPVYVGRVV [TGM2_Y219] was tested. Which SH2 binding enrichment did it give?
Answer: 1.39

Question: With ADARMYGVHPW [PLP1_Y207_L210H] as the sequence, how does the SH2 binding enrichment read?
Answer: 0.477

Question: Which SH2 binding enrichment does the source give for HSQEDYFECFQ [ZIM2_Y411] here?
Answer: 0.6

Question: WCKPLYFSCAV [MMS22L_Y28_P27L] was tested. Which SH2 binding enrichment did it give?
Answer: 1.22

Question: Which SH2 binding enrichment does the source give for EWQQTYTFDSG [JUP_Y20_YF] here?
Answer: 0.799

Question: SQQTYCRVSNM [ABCD1_Y181_Y181C] was tested. Which SH2 binding enrichment did it give?
Answer: 0.616

Question: How did the SH2 binding enrichment turn out when CTHDLYMIMRE [FGFR3_Y724] was run?
Answer: 0.708

Question: With SVTCTYSPALY [TP53_Y126_N131Y] as the sequence, how does the SH2 binding enrichment read?
Answer: 0.638

Question: For STKELYEKFMI, which SH2 binding enrichment is on record?
Answer: 0.709

Question: For GRPMDYHVSIT [OTOF_Y254_Q255H], which SH2 binding enrichment is on record?
Answer: 0.698

Question: With MAPQMYEFHLP [NCAPD2_Y6] as the sequence, how does the SH2 binding enrichment read?
Answer: 0.582

Question: Which SH2 binding enrichment does the source give for PMFHSYVSLPF [PLXNA2_Y293_K289M] here?
Answer: 1.4

Question: With TNYCLYLRSLE [MTM1_Y71_R69C] as the sequence, how does the SH2 binding enrichment read?
Answer: 2

Question: Which SH2 binding enrichment does the source give for SLDLSYFHTSS [EMD_Y181_P183H_YF] here?
Answer: 0.591

Question: With IGEGTYGVLYK [CDK2_Y15_V18L] as the sequence, how does the SH2 binding enrichment read?
Answer: 0.514

Question: ARGMEYLASQK [FGFR2_Y616] was tested. Which SH2 binding enrichment did it give?
Answer: 0.755

Question: How did the SH2 binding enrichment turn out when MEIHAYRKLSE [LMNA_Y376_L380S] was run?
Answer: 0.641

Question: Which SH2 binding enrichment does the source give for FGHTFYNQAIM [MCCC2_Y196_R193H] here?
Answer: 1.01

Question: For LLIMEYAKFGS [RET_Y806_V804M_YF], which SH2 binding enrichment is on record?
Answer: 0.655

Question: For ECKEAYHEGEC [PRKN_Y372], which SH2 binding enrichment is on record?
Answer: 0.577

Question: Which SH2 binding enrichment does the source give for TSQSQYSSFRE [CCDC170_Y323_F324S] here?
Answer: 0.779

Question: TLPAFYMGNFS [GLB1_Y552] was tested. Which SH2 binding enrichment did it give?
Answer: 0.809

Question: TLKDVCDDGKF [RPS6KA3_Y483_Y483C_YF] was tested. Which SH2 binding enrichment did it give?
Answer: 0.809

Question: Which SH2 binding enrichment does the source give for RRNVYYYSYLL [PTEN_Y177_Y174N] here?
Answer: 0.641

Question: KDYETYQSFQN [CTNND2_Y1157_P1159S] was tested. Which SH2 binding enrichment did it give?
Answer: 0.712

Question: Which SH2 binding enrichment does the source give for AKLVQYYMEHH [PTPN11_Y80_E76K] here?
Answer: 1.75

Question: Which SH2 binding enrichment does the source give for STAPSYGNPSS [CD19_Y378_G373S] here?
Answer: 0.694

The sequences below were run against Grb2 SH2 (UniProt P62993) in the same assay as above.
Chain of Grb2 SH2 (P62993 whole entry, looked up): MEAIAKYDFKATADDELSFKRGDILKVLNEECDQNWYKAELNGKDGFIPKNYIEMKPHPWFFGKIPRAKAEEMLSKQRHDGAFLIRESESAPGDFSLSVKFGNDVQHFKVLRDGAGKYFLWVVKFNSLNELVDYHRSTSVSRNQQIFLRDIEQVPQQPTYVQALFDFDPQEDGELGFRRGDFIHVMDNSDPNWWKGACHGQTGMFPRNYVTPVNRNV

Question: YTTIHYNYMCN [TP53_Y234_C229Y] was tested. Which SH2 binding enrichment did it give?
Answer: 1

Question: YTDPYYDYEIE [ZC3H18_Y372_A368T] was tested. Which SH2 binding enrichment did it give?
Answer: 0.822

Question: With HAKKNYGNSSV [HDX_Y197] as the sequence, how does the SH2 binding enrichment read?
Answer: 1.04

Question: Which SH2 binding enrichment does the source give for KTTILHKLKLG [ARF1_Y35_Y35H] here?
Answer: 1.5

Question: For KFVVVYFRETD [IL17RB_Y447_I451T_YF], which SH2 binding enrichment is on record?
Answer: 2.19

Question: With VHYLVYHHHHH [CACNA1H_Y519_H516Y] as the sequence, how does the SH2 binding enrichment read?
Answer: 0.985

Question: Which SH2 binding enrichment does the source give for RSSPVYVGRVV [TGM2_Y219] here?
Answer: 1.13

Question: ADARMYGVHPW [PLP1_Y207_L210H] was tested. Which SH2 binding enrichment did it give?
Answer: 0.653

Question: HSQEDYFECFQ [ZIM2_Y411] was tested. Which SH2 binding enrichment did it give?
Answer: 0.639

Question: How did the SH2 binding enrichment turn out when WCKPLYFSCAV [MMS22L_Y28_P27L] was run?
Answer: 1.5

Question: For EWQQTYTFDSG [JUP_Y20_YF], which SH2 binding enrichment is on record?
Answer: 0.881

Question: How did the SH2 binding enrichment turn out when SQQTYCRVSNM [ABCD1_Y181_Y181C] was run?
Answer: 0.897

Question: CTHDLYMIMRE [FGFR3_Y724] was tested. Which SH2 binding enrichment did it give?
Answer: 0.811

Question: With SVTCTYSPALY [TP53_Y126_N131Y] as the sequence, how does the SH2 binding enrichment read?
Answer: 0.569

Question: Which SH2 binding enrichment does the source give for STKELYEKFMI here?
Answer: 0.915

Question: Which SH2 binding enrichment does the source give for GRPMDYHVSIT [OTOF_Y254_Q255H] here?
Answer: 0.825

Question: Which SH2 binding enrichment does the source give for MAPQMYEFHLP [NCAPD2_Y6] here?
Answer: 0.656

Question: How did the SH2 binding enrichment turn out when PMFHSYVSLPF [PLXNA2_Y293_K289M] was run?
Answer: 0.745

Question: For TNYCLYLRSLE [MTM1_Y71_R69C], which SH2 binding enrichment is on record?
Answer: 1.18

Question: With SLDLSYFHTSS [EMD_Y181_P183H_YF] as the sequence, how does the SH2 binding enrichment read?
Answer: 0.907

Question: Which SH2 binding enrichment does the source give for IGEGTYGVLYK [CDK2_Y15_V18L] here?
Answer: 0.635

Question: ARGMEYLASQK [FGFR2_Y616] was tested. Which SH2 binding enrichment did it give?
Answer: 0.763

Question: MEIHAYRKLSE [LMNA_Y376_L380S] was tested. Which SH2 binding enrichment did it give?
Answer: 0.718

Question: How did the SH2 binding enrichment turn out when FGHTFYNQAIM [MCCC2_Y196_R193H] was run?
Answer: 1.18

Question: How did the SH2 binding enrichment turn out when LLIMEYAKFGS [RET_Y806_V804M_YF] was run?
Answer: 1.35

Question: For ECKEAYHEGEC [PRKN_Y372], which SH2 binding enrichment is on record?
Answer: 0.82

Question: TSQSQYSSFRE [CCDC170_Y323_F324S] was tested. Which SH2 binding enrichment did it give?
Answer: 1.1

Question: TLPAFYMGNFS [GLB1_Y552] was tested. Which SH2 binding enrichment did it give?
Answer: 0.868

Question: For TLKDVCDDGKF [RPS6KA3_Y483_Y483C_YF], which SH2 binding enrichment is on record?
Answer: 1.16

Question: For RRNVYYYSYLL [PTEN_Y177_Y174N], which SH2 binding enrichment is on record?
Answer: 0.565

Question: Which SH2 binding enrichment does the source give for KDYETYQSFQN [CTNND2_Y1157_P1159S] here?
Answer: 0.981

Question: AKLVQYYMEHH [PTPN11_Y80_E76K] was tested. Which SH2 binding enrichment did it give?
Answer: 0.936

Question: With STAPSYGNPSS [CD19_Y378_G373S] as the sequence, how does the SH2 binding enrichment read?
Answer: 0.744
